Results as given in patent US20070037211A1 (COUNCIL OF SCIENTIFIC AND INDUSTRIAL RESEARCH CSIR, published 2007).

How the values were obtained:
[1] = target: Hsp16.3, 16 kDa alpha-crystallin like heat shock protein of Mycobacterium tuberculosis, recombinant 6xHis-tagged (Mycobacterium tuberculosis) (UniProt P9WMK1); assay: reverse phage ELISA on coated Hsp16.3, anti-M13-HRP, A405
[2] = target: Hsp16.3, 16 kDa alpha-crystallin like heat shock protein of Mycobacterium tuberculosis, recombinant 6xHis-tagged (Mycobacterium tuberculosis) (UniProt P9WMK1); assay: cell-based or functional assay

Sequence of Hsp16.3, 16 kDa alpha-crystallin like heat shock protein of Mycobacterium tuberculosis, recombinant 6xHis-tagged (Mycobacterium tuberculosis) (P9WMK1 1-144, tags left off): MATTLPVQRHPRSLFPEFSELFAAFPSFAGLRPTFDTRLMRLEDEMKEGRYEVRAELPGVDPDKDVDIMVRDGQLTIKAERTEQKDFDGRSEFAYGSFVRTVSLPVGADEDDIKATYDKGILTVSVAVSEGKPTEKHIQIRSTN

Row | Substance | fold binding over non-specific control BSA [1] [fold] | IC50 of inhibition of chaperon activity of Hsp16.3 (ADH heat aggregation assay, A360) [2] [µM] | aggregation of ADH restored in the presence of Hsp16.3 and 100 µM peptide (A360 at saturation) [2] [%]
1 | M13 phage clone displaying peptide Seq ID 9 (Lys-Met-His-Ala-Thr-Asn-His), from Ph.D.-7 library | 3 |  | 
2 | synthetic peptide Seq ID 10 (Seq ID 9 with Gly-Gly-Gly-Ser at the C-terminal end), C-terminus amidated |  | 47 | 70
